Earlier results in PMC6406280.

target: T1, thrombin (UniProt P00734+P00734); assay: not stated (cited); details: modified TBA, not described; no binding assay done in this paper (SEC, CD/UV melting, analysis of published structures); conditions of the cited assays not in the material

Substance | Kd
mTBA | 25 nM

same assay, conditions: no binding assay done in this paper (SEC, CD/UV melting, analysis of published structures); conditions of the cited assays not in the material

Substance | Kd
CGCCTAGGTTGGGTAGGGTGGTGGCG [NU172 (aaa)] | 35 nM
RE31 | 0.56 nM

target: T1, thrombin; assay: not stated (cited; equals the aKi); details: no binding assay done in this paper (SEC, CD/UV melting, analysis of published structures); conditions of the cited assays not in the material

Substance | Kd
CGCCTAGGTTGGGTAGGGTGGTGGCG [NU172 (aaa)] | 0.29 nM

target: T1, thrombin; assay: thrombin inhibition (apparent Ki); details: no binding assay done in this paper (SEC, CD/UV melting, analysis of published structures); conditions of the cited assays not in the material

Substance | Ki
CACTGGTAGGTTGGGTAGGGTGGGGCCAGTG [jja] | 1.2 nM
CACTGGTAGGTTGGGTAGGGTGGTCCAGTG [jaa] | 1.34 nM
CACTGGTAGGTTGGTGTGGTTGGGGCCAGTG [31-TBA (jjj)] | 0.34 nM
CACTGGTAGGTTGGTGTGGTTGGTCCAGTG [jaj] | 14.2 nM
CGCCTAGGTTGGGTAGGGTGGGGGGCG [aja] | 13.2 nM
CGCCTAGGTTGGGTAGGGTGGTGGCG [NU172 (aaa)] | 0.29 nM
CGCCTAGGTTGGTGTGGTTGGGGGGCG [ajj] | 48.6 nM
CGCCTAGGTTGGTGTGGTTGGTGGCG [aaj] | 13.4 nM
